Test [1] deals with T1, SARS-CoV spike RBD (R306-F527), C-terminal 6-His (SARS-CoV, UniProt P59594 306-527). Briefly: antigen-down ELISA, coated SARS-CoV-1 S1 RBD titrated, Ab 1 µg/mL. (In general: An ELISA detects its analyte on a solid surface through an enzyme-linked reagent.)
The target in test [2] is T2, recombinant his-tagged homotrimeric SARS-CoV-2 spike protein (SARS-CoV-2, UniProt P0DTC2 16-1211). In words: flow cytometry, blocking of binding to hACE-2 cells.
The target of test [3] is T3, recombinant monomeric SARS-CoV-1 S1 protein (SARS-CoV-1, UniProt P59594 14-667). Briefly: antigen-down ELISA, coated SARS-CoV-1 S1 titrated, Ab 1 µg/mL.
The target in test [4] is T4, recombinant monomeric SARS-CoV-2 S1 protein, his-tagged (SARS-CoV-2, UniProt P0DTC2 16-681).
T4 construct: domain: S1
In words: flow cytometry, blocking of binding to hACE-2 cells. (In general: Flow cytometry measures light scatter and fluorescence of single cells or particles in a stream.)

The target of test [5] is T2, recombinant his-tagged homotrimeric …. The test is described as above. The source holds these as a separate data set.
Test [6] concerns the target T4, recombinant monomeric SARS-CoV-2 S1 …. The description is as above. The source holds these as a separate data set.
Test [7] deals with T1, SARS-CoV spike RBD (R306-F527), …. The test is described as above.
The target of test [8] is T3, recombinant monomeric SARS-CoV-1 S1 …. Described as above.
Test [9] deals with T1, SARS-CoV spike RBD (R306-F527), …. The description is as above. The source holds these as a separate data set.
In test [10] the target is T3, recombinant monomeric SARS-CoV-1 S1 …. The test is described as above. This is another data set of the same source.
Test [11] concerns the target T1, SARS-CoV spike RBD (R306-F527), …. In words: antigen-down ELISA, coated SARS-CoV-1 S1 RBD titrated, Ab 1 µg/mL. This is another data set of the same source.
The target in test [12] is T3, recombinant monomeric SARS-CoV-1 S1 …. In words: antigen-down ELISA, coated SARS-CoV-1 S1 titrated, Ab 1 µg/mL. The source holds these as a separate data set.
Test [13] deals with T1, SARS-CoV spike RBD (R306-F527), …. In words: antigen-down ELISA, coated SARS-CoV-1 S1 RBD titrated, Ab 1 µg/mL. This is another data set of the same source.
Test [14] concerns the target T3, recombinant monomeric SARS-CoV-1 S1 …. In words: antigen-down ELISA, coated SARS-CoV-1 S1 titrated, Ab 1 µg/mL. This is another data set of the same source.
Test [15] concerns the target T5, BSA (bovine, UniProt P02769).
T5 construct: also called bovine serum albumin
In words: dipstick, adsorbed protein spots, Ab 10 µg/mL, GAM-AuNP.

Test [16] concerns the target T1, SARS-CoV spike RBD (R306-F527), …. In words: lateral flow NC50, RBD-AuNP vs immobilised ACE2.
The target of test [17] is T5, BSA. In words: dipstick, adsorbed protein spots, Ab 10 µg/mL, GAM-AuNP. The source holds these as a separate data set.
For test [18], the target named is T3, recombinant monomeric SARS-CoV-1 S1 …. Briefly: antigen-down ELISA, coated SARS-CoV-1 S1 titrated, Ab 1 µg/mL. The source holds these as a separate data set.
For test [19], the target named is T5, BSA. Briefly: dipstick, adsorbed protein spots, Ab 10 µg/mL, GAM-AuNP. The source holds these as a separate data set.
Test [20] deals with T1, SARS-CoV spike RBD (R306-F527), …. In words: antigen-down ELISA, coated SARS-CoV-1 S1 RBD titrated, Ab 1 µg/mL. The source holds these as a separate data set.
Test [21] concerns the target T3, recombinant monomeric SARS-CoV-1 S1 …. In words: antigen-down ELISA, coated SARS-CoV-1 S1 titrated, Ab 1 µg/mL. This is another data set of the same source.
Test [22] has as its target T1, SARS-CoV spike RBD (R306-F527), …. Briefly: antigen-down ELISA, coated SARS-CoV-1 S1 RBD titrated, Ab 1 µg/mL. The source holds these as a separate data set.

Like-named read-outs stand apart in the source and are kept apart here.

T5 sequence (P02769 25-607 limits assumed): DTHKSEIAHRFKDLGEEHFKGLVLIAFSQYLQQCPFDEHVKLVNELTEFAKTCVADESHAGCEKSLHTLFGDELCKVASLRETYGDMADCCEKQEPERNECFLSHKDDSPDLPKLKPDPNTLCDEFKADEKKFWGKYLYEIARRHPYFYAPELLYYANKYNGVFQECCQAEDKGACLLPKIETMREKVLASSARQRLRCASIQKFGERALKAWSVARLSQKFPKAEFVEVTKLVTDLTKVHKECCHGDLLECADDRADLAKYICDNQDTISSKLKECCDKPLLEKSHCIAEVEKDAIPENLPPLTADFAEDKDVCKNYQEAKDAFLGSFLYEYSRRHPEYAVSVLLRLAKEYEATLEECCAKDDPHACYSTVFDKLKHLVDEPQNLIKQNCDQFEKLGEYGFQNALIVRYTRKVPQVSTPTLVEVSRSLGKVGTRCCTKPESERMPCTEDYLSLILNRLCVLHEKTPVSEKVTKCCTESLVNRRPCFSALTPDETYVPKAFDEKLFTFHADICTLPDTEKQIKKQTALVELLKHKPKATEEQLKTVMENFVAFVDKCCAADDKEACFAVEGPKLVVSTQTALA

B1: 1035211 (antibody, V domains shown)
VH: QVQLQQSGAELARPGASVKMSCKASGYTFTNYTMHWVKQRPGQGLEWIGYINPSSGYTNYNQKFKDKATLTADKSSSTAYMQLSSLTSEDSAVYYCARRNPLYAMDYWGQGTSVTVSS
VL: DIKMTQSPSSMYASLGERVTITCKASQDINSYLNWFQQKPGKSPKTLIYRANRLVDGVPSRFSGSGSGQDYSLTISSLEFEDMGIYYCLQYDEFPYTFGGGTKLEIK
For the molecule B1, the binding result in test [1] and in test [3] was “no binding (tested: 400 ng coated (axis))” throughout. Besides, the percent blocking was determined as 78.6% in test [2]; 88.7% in test [4]; 78.6% in [5]; 88.7% in test [6]; 0.1% in [7]; 0% in [8]. In addition, the values for the percent blocking in test [9] and in test [10] were 0.1% and 0%, respectively.

B2: 1035755 (antibody, V domains shown)
VH: EVQLQQSGAELVRPGALVKLSCKASGFNIKDYYMHWVKQRPEQGLEWIGWIDPENGNSIYDPKFQGKASITADTSSNTAYLQLSSLTSEDTAVYYCATPSATSYFDYWGQGTTLTVSS
VL: QIVLTQSPAIMSASPGEKVTISCSASSSVSYMYWYQQKPGSSPKPWIYRTSNLASGVPARFSGSGSGTSYSLTISSMEAEDAATYYCQQYHSYPYMYTFGGGTKLEIK
In the case of B2, the binding result in [11] and in [12] was “no binding (tested: 400 ng coated (axis))” each time. Moreover, the percent blocking in test [2] is 84.6%; in test [4], 93.3%; in [5] it was 84.6%; in [6], 93.3%; in test [7], 0%; in [8], 1.3%. Besides, the percent blocking in test [9] turned out to be 0%; in test [10], 1.3%.

B3: 1035753 (antibody, V domains shown)
VH: EVQLQQSGAELVRPGALVKLSCKASGFNIKDYYMHWVKQRPEQGLEWIGWIDPENGNTIYDPKFLGKASITADTSSNTAYLQLSSLTSEDTAVYYCARWYYYAMDSWGQGTSVTVSS
VL: DIQMTQTTSSLSASLGDRVTISCSASQGISNYLNWYQQKPDGTVKLLIYYTSSLHSGVPSRFSGSGSGTDYSLTISNLEPEDIATYYCQQYSKLPFTFGGGTNLEMK
B3: the percent blocking in [2] turned out to be 96.6%; in test [4], 94%; in [5] it was 96.6%; in test [6] it was 94%; in [7] it was 0%; in test [8], 0%. Further, the percent blocking in test [9] and in test [10] was 0% each time. The results for the binding result (in test [13]; in test [14]; with BSA [15]) were “no binding (tested: 400 ng coated (axis))”, “no binding (tested: 400 ng coated (axis))” and “no binding (tested: 10 µg/mL)”, respectively.

B4: 1035740 (antibody, V domains shown)
VH: EVLLQQSGPELVKPGASVKIPCKASGYTFTDYNMDWVKQSHGKSLEWIGDINPNNGFTIYNQKFKGKATLTVDKSSSTAYMELRSLTSEDTAVYYCAREGYGNYFDYWGQGTTLTVSS
VL: DVLLTQSPAILSVSPGERVSFSCRASQSIGTSLHWYQQRTNGSPRLLIKYVSESISGIPSRFSGSGSGTDFTLSINSVESEDIADYYCQQSSSWPTTFGAGTKLELK
A word on the IC50: it is the concentration that gives 50% inhibition. Read a high IC50 as weaker potency. In test [16], B4 gave an IC50 of 0.84 µg/mL. Moreover, the percent blocking is 96.5% in [2]; 93.4% in test [4]; 96.5% in [5]; 93.4% in [6]; 98.8% in test [7]; 92.4% in [8]. The percent blocking worked out at 98.8% in [9] and 92.4% in [10]. Also, the binding result in the test with BSA [17] is on record as “no binding (tested: 10 µg/mL)”.

B5: 1035709 (antibody, V domains shown)
VH: EVQLQQSGPELVKPGASVKISCKTSGYTFTEYTMHWVKQSHGKSLEWIGGINPNIVDTGYNQKFKGKATLTVDKSSSTAYMELRSLTSEDSAVYYCARDGYPLYYAMDYWGQGTSVTVSS
VL: DIQMTQSPSSLSASLGERVSLTCRASQEISGYLSWLQQKPDGTIKRLIYAASTLDSGVPKRFSGSRSGSDYSLTISSLESEDFADYYCLQYASYPWTFGGGTKLEIK
For B5, the percent blocking in [2] was 96.5%; in test [4], 93.6%; in [5] it was 96.5%; in test [6] it was 93.6%; in test [7] it was 0%; in [8] it was 0%. Moreover, the percent blocking in test [9] and in test [10] was 0% in each case. The binding result in test [18] is “no binding (tested: 400 ng coated (axis))”; with BSA [19], “no binding (tested: 10 µg/mL)”; in test [20] it was “no binding (tested: 400 ng coated (axis))”.

B6: 1035752 (antibody, V domains shown)
VH: QVQLQQPGAELVRPGASVKMSCKASGYTFTSHSIHWVKQTPGQGLEWIGAVYPGNGDTSYYQKFKGKATLTADKSSSTAYMHLSSLTSEDSAVYYCARDGYSDYYAMDCWGQGTSVTVSS
VL: DIVMTQSQKFMSTSVGDRVSVTCKASQNVGTNVAWYQQKPGQSPKALIYSASYRYSGVPDRFTGSGSGTDFTLTINNVQSEDLAEYFCQQYNRYPWTFGGGTKLEIK
With B6, the binding result in test [21] and in [22] was “no binding (tested: 400 ng coated (axis))” in each case. The percent blocking in test [2] worked out at 91.8%; in test [4] it was 93.3%; in [5], 91.8%; in [6], 93.3%; in [7], 0%; in [8] it was 0%. The percent blocking in test [9] and in test [10] was 0% in each case.

For the origin of these results see patent US20230408517A1 (BIO TECHNE, published 2023).
